Patent US20150231240A1, “ANTI-C16ORF54 ANTIBODIES AND METHODS OF USE THEREOF” (priority 2012, published 2015)
Positions count from the first letter of the chain named.

T1: human C16orf54 (Homo sapiens, UniProt Q6UWD8)
T1 construct: expressed in transfected cells; host or cells: murine sarcoma cells (D42M1-huC16orf54)
T1 sequence (Q6UWD8 1-224): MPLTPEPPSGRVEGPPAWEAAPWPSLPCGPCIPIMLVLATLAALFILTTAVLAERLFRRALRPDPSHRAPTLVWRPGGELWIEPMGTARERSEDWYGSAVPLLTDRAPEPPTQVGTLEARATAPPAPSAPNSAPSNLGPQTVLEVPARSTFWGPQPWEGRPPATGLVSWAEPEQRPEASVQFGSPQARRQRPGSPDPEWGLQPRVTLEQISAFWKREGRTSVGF

T2: extracellular domain of c16orf54 (amino acids 1-31) fused to human IgG1 Fc (Homo sapiens, UniProt Q6UWD8)
T2 construct: the extracellular domain of c16orf54 (amino acids 1-31) either N terminal or C-terminal to a human IgG1 Fc domain; made in house; host or cells: 293 T cells, transient; Protein A purification
T2 sequence (Q6UWD8 1-31 limits assumed): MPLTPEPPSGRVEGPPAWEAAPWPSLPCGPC

B1: R29-8-57B: murine anti-C16orf54 monoclonal antibody; VH SEQ ID NO: 20, VL SEQ ID NO: 22 (antibody, V domains shown)
VH: MRVLILLWLFTAFPGILSDVQLQESGPGLVKPSQSLSLTCTVTGYSITSDYAWNWIRQFPGNKLEWMGYINYSGSTRYNPSLKSRISITRDTSKNHFFLQLNSVTPEDTATYHCARERYDGVYYGMDYWGQGTSVTVSS
VL: MDSQAQVLMSLLLWVSGTCGDIVMSQSPSSLAVSVGEKVTMSCKSSQSLLYSSNQKNYLAWYQQKPGQSPKLLIYWASTRESGVPDRFTGSGSGTDFTLTISSVKTEDLAVYYCQQYYSYRTFGGGTKLEIK
modifications: R29-8-57B heavy chain variable region; R29-8-57B light chain variable region
B2: R29-8-136C: murine anti-C16orf54 monoclonal antibody; VH SEQ ID NO: 16, VL SEQ ID NO: 18 (antibody, V domains shown)
VH: B1 VH with T76S
VL: B1 VL
modifications: R29-8-136C heavy chain variable region; R29-8-136C light chain variable region

How the values were obtained:
Type in all cases: binding
[1] = system: human C16orf54 extracellular domain peptides; assay: C16orf54 peptide ELISA, human extracellular domain peptides; details: human, cyno, or mouse extracellular domain peptides, not told apart; 10 μg/ml antibody
Protocol: Anti-C16orf54 antibodies which bind to human C16orf54, including antibodies that are crossreactive with cyno C16orf54, were tested for their binding to various peptides derived from C16orf54 in a peptide ELISA. A 384-well high binding black microplate (Greiner) was incubated with 2 μg/ml of protein (human, cyno, or mouse extracellular domain peptides) for 16 hours, incubated for 1 hr with a blocking buffer (PBS with 5% Fetal Bovine Serum), washed four times with TBS with Tween, incubated for 1 hour with 10 μg/ml of anti-C16orf54 antibody, washed four times with TBS with Tween, incubated for 1 hour with 10 μg/ml of Peroxidase-AffiniPure Goat Anti-Mouse IgG, Fcγ Fragment Specific (Jackson ImmunoResearch), washed four times with TBS with Tween, and peroxidase was detected with a luminometer (Molecular Devices) upon addition of SuperSignal® ELISA Pico Chemiluminescent Substrate (Thermo Scientific). The luminescence signal was determined.

C16orf54 ECD peptides = assay: Peptide crossblocking (Table 36)
human C16orf54 = target: T1, human C16orf54; assay: Flow cytometry reactivity with sarcoma cells expressing human C16orf54 (fold change over isotype); details: for binding to human C16orf54 (flow cytometry): sarcoma cells expressing human C16orf54, 10 μg/ml antibody
Protocol: Anti-C16orf54 antibodies which bound to human C16orf54 were tested for their reactivity with human C16orf54 and their crossreactivity with C16orf54 from cynomolgous monkeys (cyno C16orf54) using flow cytometry. Sarcoma cells transfected with and expressing human C16orf54 or cyno C16orf54 were washed with PBS with 0.1% BSA, incubated with FcX receptor blocking solution (BioLegend) for 15 minutes, incubated with 10 μg/ml of anti-C16orf54 antibody for 1 hour at 4° C., washed twice with PBS with 0.1% BSA, incubated with 20 μg/ml of R-Phycoerythrin-AffiniPure F(ab′)2 Fragment Goat Anti-Mouse IgG, Fcγ Fragment Specific (Jackson ImmunoResearch) for 30 minutes at 4° C., washed twice with PBS with 0.1% BSA, incubated with the viability dye TO-PRO-3 iodide (Life Technologies), and immediately analyzed on a MACSQuant Analyzer instrument (Miltenyi). For each cell line and anti-C16orf54 antibody, a fold change was derived by dividing the median fluorescence intensity for Phycoerythrin in the live cell population for the anti-C16orf54 antibody by the median fluorescence intensity for Phycoerythrin in the live cell population for the IgG isotype control antibody.

[2] = target: T2, extracellular domain of c16orf54 (amino acids 1-31) fused to human IgG1 Fc; assay: C16orf54 peptide-Fc fusion protein ELISA; details: serial dilution of antibody; HRP-conjugated anti mouse secondary
Protocol: Anti-C16orf54 antibodies which bind to human C16orf54, including antibodies that are crossreactive with cyno C16orf54, were tested for their binding to various peptides derived from C16orf54 that were fused to human IgG (e.g., IgG1) constant regions to generate various peptide-Fc fusion proteins in an Fc-based ELISA. An exemplary Fc sequence comprises an IgG1 Hinge region sequence and IgG1 CH3 and […] domain sequences.
The fusion proteins were transiently expressed in 293 T cells. Protein was purified from the 293 expression supernatants by Protein A-based affinity purification. Exemplary C16 peptide-Fc fusion constructs that were made and purified are shown with their protein yield in Table 38. ELISA assays were performed by coating 384 well plates with the fusion proteins overnight at 4C. Antibodies were analyzed by serial dilution with concentrations ranging from 40 ug/mL to […]. Binding was detected with an HRP-conjugated anti mouse secondary antibody.

Molecule | binding to peptides derived from the extracellular domain of C16orf54 (peptide ELISA) [1] | Peptide crossblocking (C16orf54 ECD peptides) | binding to C16orf54-expressing cells (dual binders) (human C16orf54) | binding to human C16orf54 (flow cytometry) (human C16orf54) | binding to peptide-Fc fusion proteins (Fc-based ELISA) [2]
B1 | bind to the various peptides derived from the extracellular domain (ECD) of C16orf54 | aa1-31, aa1-15 | bind to C16orf54-expressing cells | bind human C16orf54 | able to bind to the peptide-Fc fusion proteins
B2 | bind to the various peptides derived from the extracellular domain (ECD) of C16orf54 | aa1-31, aa1-15 | bind to C16orf54-expressing cells | bind human C16orf54 | 
